This note sets out measurements from US7939057B2, “Methods and compositions for modulating the mobilization of stem cells” (Mount Sinai School of Medicine, priority 2006, dated 2011).

Assay [1] has as its system CXCL12. Nature of the assay: CXCL12 protein by ELISA in BMEF and bone extracts after G-CSF. It is filed as in vivo, mice. As to the method:
CXCL12 ELISA was done exactly as described (Petit, I., Szyper-Kravitz, M., Nagler, A., Lahav, M., Peled, A., Habler, L., Ponomaryov, T., Taichman, R. S., Arenzana-Seisdedos, F., Fujii, N., et al. (2002). G-CSF induces stem cell mobilization by decreasing bone marrow SDF-1 and up-regulating CXCR4. Nat Immunol 3, 687-694). Mouse plasma osteocalcin was measured using ELISA kit (Biomedical Technologies Inc., Stoughton, Mass.) according to manufacturer's recommendation.
BMEF was obtained by flushing two femurs with one ml of ice-cold PBS, and the supernatant was harvested after 25 strokes of gentle pipetting followed by centrifugation at 400 g for 5 min. Bone protein extraction was performed as described (Pfeilschifter, J., Laukhuf, F., Muller-Beckmann, B., Blum, W. F., Pfister, T., and Ziegler, R. (1995). Parathyroid hormone increases the concentration of insulin-like growth factor-I and transforming growth factor beta I in rat bone. J Clin Invest 96, 767-774). After extraction, the samples were dialyzed extensively against cold PBS (pH 7.4) for 72 h with a dialysis cassette of 3500 MWCO (Pierce). Volume of dialyzed extracts was measured, centrifuged at 16,000 g for 15 min at 4° C., and the supernatants stored at −80° C. CXCL12 levels in BMEF and bone extracts were determined by ELISA.

The next assay relates to Runx2. Kind of assay: Q-PCR of Runx2 in BMNCs after G-CSF. It is filed as in vivo. As to conditions: bone marrow of Cgt+/+ mice after G-CSF; n=4, p<0.001. Here is the method:
(§1) Methods, primers and PCR conditions are available in Table S3. Briefly, total RNA was extracted from BMNC using TRIzol solution (Invitrogen, Carlsbad, Calif.). The bone carcass was then immersed in liquid nitrogen, and pulverized into powder followed by RNA extraction with TRIzol. Total RNA (1 μg) was treated with DNaseI (Invitrogen, Carlsbad, Calif.), and reverse transcribed using first strand cDNA synthesis with random primers (Promega, Madison, Wis.). Q-PCR was performed using SYBR Green (Molecular Probes) on an ABI PRISM 7900HT Sequence Detection System (Applied Biosystems, Foster city, CA). All experiments were done in triplicate and normalized to GAPDH.

Assay [2] concerns CXCL12. Nature of the assay: CXCL12α and CXCL12β mRNA by Q-PCR in BM and bone after G-CSF. Type of assay: in vivo, mice. Here is the method:
as §1

In a further assay the test system is α1(I) collagen. Nature of the assay: Q-PCR of α1(I) collagen in BMNCs after G-CSF. It is filed as in vivo. As to conditions: bone marrow of Cgt+/+ mice after G-CSF; n=4, p<0.05. Here is the method: as §1
In another assay the test system is rhCXCL12α. Kind of assay: Degradation of rhCXCL12α by BMEF of G-CSF-treated mice (Western blot). Type of assay: biochemical, human. As to conditions: 24 h at 37° C. As to the method: PBS or BMEF (35 μl) from G-CSF-treated and control mice was incubated with 50 ng of rhCXCL12α (R&D Systems) for 24 h at 37° C. The reactions were stopped by the addition of sample buffer containing protease inhibitor cocktail (Sigma) and DTT (final concentration 10 mM) followed by boiling for 5 min at 95° C. Samples were separated by electrophoresis on 16% polyacrylamide Tris-tricine gel and transferred onto PVDF membrane (0.2 μm pore size, Millipore, Bedford, Mass.). Membranes were blocked in TBS with 0.05% Tween 20 and 4% milk, incubated with 0.5 μg/ml of mouse monoclonal anti-CXCL12 antibody (clone 79018.111, R&D Systems) then with 1/20,000 dilution of horseradish peroxidase-anti-mouse IgG (Jackson Immunoresearch, West Grove, Pa.). Signal was detected with the enhanced chemiluminescence method (West Dura Extended Duration Substrate, Pierce, Rockford, Ill.).

A further assay relates to NE. Kind of assay: NE content in heart and bone after G-CSF (HPLC). Type of assay: in vivo, C57BL/6 mice. Here is the method: Mice were sacrificed and hearts were rapidly removed, weighed, frozen in liquid nitrogen. Tissues were homogenized in HPLC solvent (0.1M TCA, which contains 10^−2 M sodium acetate, 10^−4 M EDTA and 10.5% methanol, pH 3.8). Hindlimb long bones were harvested, weighted, frozen in liquid nitrogen. Pooled bones were crushed using a bessman tissue pulverizer (Spectrum Laboratories) pre-chilled in a liquid nitrogen bath. Pulverized tissues were homogenized (620 mg/ml) in 0.4N HClO4 containing 0.84 mg/mL EDTA and 12.5 μL of 4% sodium pyrosulfite solution. Bone catecholamines were extracted using solid Al203 and then desorbed from the Al203 using 0.1 N acetic acid. NE levels were determined by HPLC at the Neurochemistry Core Lab, Vanderbilt University's Center for Molecular Neuroscience Research (Nashville, Tenn.).

B1: G-CSF: recombinant human G-CSF (Filgrastim, Amgen), hematopoietic cytokine used to elicit HSPC mobilization (protein, UniProt P09919 31-207, looked up)
Granulocyte …: TPLGPASSLPQSFLLKCLEQVRKIQGDGAALQEKLVSECATYKLCHPEELVLLGHSLGIPWAPLSSCPSQALQLAGCLSQLHSGLFLYQGLLQALEGISPELGPTLDTLQLDVADFATTIWQQMEELGMAPALQPTQGAMPAFASAFQRRAGGVLVASHLQSFLEVSYRVLRHLAQP
modifications: filgrastim
notes: recombinant human G-CSF (Filgrastim, Amgen), hematopoietic cytokine used to elicit HSPC mobilization
On to B1, for which the “CXCL12 protein in BMEF” value was “greatly reduced” with CXCL12 [1] (Cgt+/+ and +/− mice after G-CSF injection); “significantly reduced” in the assay on CXCL12 [1] (Cgt−/− mice after G-CSF). Also, in the assay with CXCL12 [1] (Cgt−/− mice following G-CSF), the “CXCL12 protein levels in bone” value is listed as “no reduction”. Besides, in the assay with CXCL12 [1] (Dbh+/− mice following G-CSF), the “CXCL12 in bone protein extracts” value is given as “reduced”. Further, in the assay with CXCL12 [1] (Dbh−/− animals following G-CSF), the “CXCL12 levels in bone protein extracts” value is reported as “maintained”. Further, the “CXCL12 protein in bone” value in the assay with CXCL12 [1] (normal littermate mice following G-CSF) was “decreased”. Besides, in the assay on Runx2, the “levels of Runx2, reduction” value was determined as 65%. Also, in the assay with CXCL12 [2] (after G-CSF treatment, p<0.05 for CXCL12α, p=0.06 for CXCL12β), the “CXCL12 mRNA levels in bone” value was “moderately decreased”. Also, the “mRNA expression of both CXCL12 isoforms in BM” value with CXCL12 [2] (after G-CSF, Cgt−/− and normal littermates) is reported as “profoundly decreased”. For the same molecule, the “α1(I) collagen, reduction” value in the assay on α1(I) collagen is recorded as 92%. Moreover, the “degradation of recombinant CXCL12 by BMEF” value in the assay with rhCXCL12α (BMEF from G-CSF-treated Cgt+/+ mice) is recorded as “completely degraded”; in the assay on rhCXCL12α (BMEF from G-CSF-treated Cgt−/− mice) it was “complete degradation”. Also, the “bone NE levels” value in the assay on NE (3 h after G-CSF administration (250 μg/kg s.c.)) was “dramatic reduction”. Further, the “cardiac NE levels” value in the assay with NE (single dose of G-CSF (250 μg/kg s.c.)) is “slightly reduced”.
